The domain aggregation screens of Martell et al. (2025)

experiment: soluble fraction after stress (log2 fold change); higher = more stays soluble; pooled small domains, quantitative proteomics; conditions: stress: pH 4
Outline: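 Following acid stress at pH 4, the amount of each small protein domain still soluble was measured in pooled custom libraries by high-throughput quantitative proteomics. Its fold change, on a log2 scale, is higher when more of the domain stayed soluble. This fold change is taken as a measure of aggregation propensity.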

Row | Sequence | soluble fraction (log2)
1 | HMKRIHLSDEEKTDLESLHYSSNDGKQRDRIKAVLLRSEGWTVPMISQALRIHETTVTRYLNDYREGKLKN | -0.143
2 | HMKRITKKELKQAIVDVFADKPGQSFNYKQLATIIGIKDDPTRRMITDILYELVQEERIVELYRGKFKMEM | -0.335
3 | HMKRLPFSFAKRFGVVVEDGEPPIVHHRDGASAETLLEVRRRLGQVFTLQRHDAEAFERLLTQAYQR | -0.837
4 | HMKRPEPESPEAERRSQRAADWLVRRDRGLTAAEQDEFLQWLAIDPRHGEWFALHRSVVGEFSA | -1.12
5 | HMKRQDFEFLVNLLRQNAGWDFDEEQYFVVDKKISNFIREKGYASVEDLIDELKVGAKPLISQVVESLAL | -2.01
6 | HMKRTFGEISPLPSGRYRARYRGPDGERYPAPVTFLSRMDAETWLSAQARKVSSGDWTPPVGVVA | 0.195
7 | HMKRWHVGDPIDALTAAGKVPSWSTIRQRFWKTIAALYPDIEQSERLQRGLAMLDEAGTSIELHHP | -0.615
8 | HMKRYLFEEVLAFLKHNDGKSFNYKQLGAAMEIDNESDRFALLETLEELKHQGFVIETDIGKYAAKE | -0.322
9 | HMKSDELTKRRRLQIIEAAERSFRKRGFHATTLREIAAEFGMSVGHIYNYFSGKDAILEALIHQKIDD | -0.429
10 | HMKSKHENLIDGLLKMISSMKPHDRLTPERQLAEEWAVSRMTLRRALEVLQFQGKIYTVPSSGLFVAEPK | -0.677
11 | HMKSKPRVPFGSLVEMGILKPGSILFDPKGKIKTKVMVDGSIKYKETEGSIHKVAAQIMGTESYNGWTYW | -0.0629
12 | HMKSLDDVISKFRPTGSENKIDFRKRVISEIHAQGFFKIKGSVNHVAKALGVTRYTVYNYLDKLND | ≥ 0.43
13 | HMKSLLTHAEEFVRNNNGRWMLAETSSKESYSSKQNFYLRNNYSIISEIRDFYSVGDNLLVFGKFFT | -0.242
14 | HMKSNESAELGERMLNKALLALHTDSSKISDTQWQKLLRDYGAKNKQEILTDIGLGKRLNVMVAHQLMAMG | 0.0391
15 | HMKSNIGENIRQLREKREMSVERVARMLEVKPATVIGWESGRELPEPAELGLLAKLFDVTVEELN | -0.0738
16 | HMKSNKEKIYDFIQMHDTAEKEGGVSTTYIAQALSLQRTNVSSLLNALVEEGRIHKSNGRPVLYSIAG | 0.178
17 | HMKSPAQAAALKKLWAAIKQNEQGEVVEVLFHNRKLTDAGLVHLKGLANLQTLNLYDTKITGAGLVHL | -0.0712
18 | HMKSVLDDVAGLGPVRKKALLKAMGGFTRLRAASLDDILAVRAVPEEVAREVFAVLAQYNSVRNNDISE | ≥ 0.43
19 | HMKSVTAPLPGTVTQILVKVGDAVKAGDTVLMLEAMKMENSITAEAAGTVKAIRVEKGAQVQGGDVLIEM | -0.594
20 | HMKTAAKVLGESGGKPVTVQSGRYGPYVQLGTIRATLPKDLDQEAVTLDKALELIDAKAERSGK | -0.0034
21 | HMKTDFEIDITVKASSLRVVASPGGDELVGTVTRGDRVTQLATPKDGWILIKMTDGRLGYVPESLLLFP | -0.89
22 | HMKTEIGQAMRKLRKAKKMTQDTLAEKLGVAPANISRYEKGQQGIEVDKLPTLADALGVSVPEFFAIASG | -0.142
23 | HMKTELAYDFHSRIRDARIREGLSQVDLAKRMNEKIAVIQKAENGIRPTDSLIAKFSKALSVELYVE | -0.604
24 | HMKTGIIYGVNGPVIYLKGDTGFKISEMVYVGPEKLVGEVIGLKKHMTTVQVFEETTGLKPGETVIGTGDA | -0.0122
25 | HMKTGTVQDFIAKYGMSSKSPSSWFNSLTQIQKAEAKALKAQSGLTWNEWYEKNIYNGDGSNL | -0.119

Row | Sequence | soluble fraction (log2)
26 | HMKTKHISIAEGMSLYTRDRSPFYWGYLNIEGVIHKKSLKTDVVDEAIKLLSIWKNELLNSITK | -0.414
27 | HMKTKKYKGVYKDSKGKIYFQIELGVDPITGKRIQKKGRKNQQGLPFNSFKEAYEEILRLKHEFVNSTIN | 0.00285
28 | HMKTKTAPPDSIPPAWLKESATLRPDLNQAQIKASAEVFLDHHRAKGTTLADWRPAWRNWIRRERA | 0.0552
29 | HMKTLDAFFDQARDAYKKLKKDGDIDNLKVLRNQLQTVRETQGDAVRKKSKEEYRRLVDIIDDIDGLLAAF | -0.154
30 | HMKTLSKEDIGFLSDEAVGEMRKAVANGEMLELRALIDQVGEKNPIVAEKLLTLVKQYDYENLNRVLE | -0.802
31 | HMKTPAPRETILSLFRQTPDGFVSGERISDELGVSRTAVWKHIRNLRQAGYQIEAIPSRGYQLQQS | -0.0693
32 | HMKTQFGTIVKQLRERKGMDQKQLGEIVGVSDKTVSSWEINRTEPKMGIVQQLADYFGVSTDYLIKG | 0.00995
33 | HMKTRQVTVRNGRIEIFDKRFSTERLVFTAANLPVLEREGEVFTAGIPDSRDFINLWARDGSFAGSVPRV | -1.51
34 | HMKTTSYAKLLRFLRTERDLSQITVAKQLGLSRASYLALEHGSRELSLSEAVKVTTLYGIRIDDLIVNH | -0.899
35 | HMKTTVEVSPIARPGAVASGSVKFGSGVTAEWMLDQYGRLGLDKPTGKPTEQDIKEFQIELQKAL | 0.122
36 | HMKVDLSEEEKTILELLKKESPQELETIKAASTLSNKKWDKAIKGLRKHNLAKVNKTDDGLFVELE | 0.105
37 | HMKVDRLISIVLVLLDKNRISAQELADMFEVSLRTIYRDIDAIELAGIPIRSTSGVGGGFEIMPNY | -1.19
38 | HMKVKGVYQLDNGYWGYRFTMLVNGKTVSQRRVKDESGNPFKTEKKAEKARLVAMAEEQTKANK | 0.125
39 | HMKVMTNAELGRIIKEARIARRMTQSEVVGDFITRNMLSQIENGNAAPSMRTLQYLMDVLDIHINIE | -0.751
40 | HMKVNIGDQVYNQMKDQIMSGVWVPGEKIPSENQLMEVFGVSRGTVRQAIQKLSAVGLLETRRGEGSYVGQ | -0.0128
41 | HMKVQLGMNTREVRGIMGKPFSEDTFVEGEKRVDVLHYKEAVRVKTQGFILTTSLRFENDSLTAI | -1.02
42 | HMKVRVFIERSNDGYSAYMPDDNNLPFGLTGDGKTAQEAMQDFLLARDEMKEFFIEEGKEFPEVEFDFS | -1.49
43 | HMKVSAEEQNILDALQAAGGYLPFHDKSNPEEIYEAFGISKKTFKMIIGSLYKQQKINLTQTGIQLII | -0.637
44 | HMKVSDPEAIKLIEQAQVKVIPFLDISEAADIQIALEELKNSEGTGQTDSAKVRLRNLLSPFSYL | -1.12
45 | HMKVSFEIEINGVTKSINSINEAKEAISELQDIMDNSTFGSEEFKNAATQIDKLQNKLVEALDK | -1.4
46 | HMKVSVDLSMFEDDQTADRNAAVAWVVDELGAGGVDRTILMQLQSTGWSAEQSRAILDLASAGR | -0.324
47 | HMKVTGSVQKKKGYYYIVVRLPTKNGTQYEQKQKWFNTKLKATPRNKTAAQVILAEKLTEYGGIV | ≥ 0.43
48 | HMKVWYAGINAQRVGPMTLGAMEQQIRYGRVLFSTLIWKSPMPQWVPAGDVPELRRLLDEHMLNQMP | -0.676
49 | HMKYFDRDLINYIQKTLAGKKIDFHEKIVPLIIELAGSDIRRVDEIIDMAEYSGKGMHVSEEMIRELAGDV | -1.72
50 | HMKYKTKRDMILALMKKEILSGELKPRTRLLISEVASRYEVSEIPVREAFQVLIQEDLVRSTGAGFEVT | 0.233

Row | Sequence | soluble fraction (log2)
51 | HMKYPVYLQLADLIERKINKNEYPLGSKIPSERELIDAFGISRMTVRKAIEVLIEKGLLTRQHGKGTYVSQ | 0.182
52 | HMKYSNDFDKVSYSLGLSIASNLISSGVKTLNAEAFNDGLATVFEGRMPEINPDEANKILQNFFEGLQKE | -0.632
53 | HMKYSQAMIAQIIKHFHLPNNTVVTGEDVDAILLRSVDGGDGIYGGDVVSIWKYYKKQNDIQEIVT | -0.764
54 | HMLAEEDRRRAERPGLDGNAVMVHLGIGPGRHVGEALAFLLEVRRSEGDLAVAELKSRIDAWWADR | -1.49
55 | HMLAERKERDKAELKELILDAAKKILLKNGQEGLSIRKIATTVEYSPATIYLYFKDKDEILHELMEMG | 0.151
56 | HMLAHSEFGARLRETRKRLGLSQSELGGDRYSGSYISHLESGRRAASAEVIEFLAGRLGVEVEELGM | -1.2
57 | HMLAIELDDKPGSLLRALEIFAKRNLNIEYMYAFTEKRGDKAVMIFKFSDIETAKKSLLEEGFN | -1.13
58 | HMLAKNDSGLNNHTFNAIRDALLEALADGPAEAKKLTENISFPSDKIITVIRFLADHDDRFSLEDGILSLT | -0.846
59 | HMLAKYEIIKQDIIQMIEEKKFKPGDKIYSEGELKKIYNVSSTTVVRALQDLVLSGYLIRKQGEGTYVRK | 0.222
60 | HMLASDYEEELSVLIKMSHKIAAGDDSLMDDFNDRVTMFESSYPINKATKDLTPVLERVNKFQT | -0.295
61 | HMLDDDAGMIQAILRKAPGHYLPLHDKSDPASIQAQLGISKAQFKRAVGTLMKQGLIRQVKGDGLYLTQ | 0.125
62 | HMLDDESLHFFYKKDGWEYWMKTTTENNYPIQLRKKIGDEKVQEYWNGDKEKKKIGASYFGV | -0.6
63 | HMLDFLVSKYESELLADLLWSLGVVAVEEREATGDLVTLRTSLGDDHSFTRELVQEKFPDVIVSTAL | -2.23
64 | HMLDIVVGSTGYALGEITDHSGTVRVNGDTWTARLVDAAGPVEDGDRVEVYAVEGTTLLVYPS | 0.128
65 | HMLDKEDNANAGKTLLERELSRAHLSDVEHRELAQRLHLASEQELYIKIGSGDLSIIQALNRAKEFKDT | -0.8
66 | HMLDKRSHAKKVLDAIEAVILGRATNDQLAYTINGRSLQKTPLPDLLRLRSQYQAEYQRELRAERIRKG | ≥ 0.43
67 | HMLDLPVKTINGKQYYYYTVKKGDTVYSLITRFGITRSDLVESNPAAADVLKTGDTLYFAVDKFG | 0.0813
68 | HMLDLYYDSEDKLLIDMGTGEVIRSFADDKRSLVFDAQAKILFDEDSGDIVYSSYFDKLITDKLASKS | -1.51
69 | HMLDPIQEGKKMLNSRLSGFGITPNTRLMNKLLAAYNISSREEFYGRIGAGIEDLSTLREVLLKGT | -0.182
70 | HMLDQSYYETANEIISRYPLEEKSLIPIIQDIQATYRYLPPDLLDYVAKKIGITETKAYSVASFYENFSF | -1.09
71 | HMLDRNKLNELDAYIESFEDKPSHLIMILHRAQGLFGYLPKELQIYVAEKTGVPAAKVYGVVTFYSFFTMK | -0.737
72 | HMLEDDTVNTAEGIKIGDSFAAVTKAYGTDYVAAGNTYAYSKDKMTLTFVMNNDKVSTISYSLLTS | -0.412
73 | HMLEDYFKEEEYTEVLKIPKEYIKGFQYYLIEDAEFVNALRAKNKTMTLFLAKKLASDYIEIIRREQ | -1.31
74 | HMLEIGRYNTLTVLRKVDFGYYLDGLDYGDILMPAKYAATELEAGDEVDVFIYLDSSEKLIATTETPIAQ | -1.58
75 | HMLEIQENFQNILKRMELSLSPLERRVLALYLSGYERSEIPEKTGIPLKTFDNALHRVRNKMK | -0.711
